Test results: US20180355013A1

Biological target: NKG2D ligands on NKG2D ligand-expressing cells
Assay: summary of the Examples; assay not given

fold improved binding avidity against monomeric NKG2D-Fc chimeras: < 100 fold
Substance: hNKG2Dx2-hIgG1 (Fc fusion)
